T1: FcgRIa (human, UniProt P12314)
T1 chain: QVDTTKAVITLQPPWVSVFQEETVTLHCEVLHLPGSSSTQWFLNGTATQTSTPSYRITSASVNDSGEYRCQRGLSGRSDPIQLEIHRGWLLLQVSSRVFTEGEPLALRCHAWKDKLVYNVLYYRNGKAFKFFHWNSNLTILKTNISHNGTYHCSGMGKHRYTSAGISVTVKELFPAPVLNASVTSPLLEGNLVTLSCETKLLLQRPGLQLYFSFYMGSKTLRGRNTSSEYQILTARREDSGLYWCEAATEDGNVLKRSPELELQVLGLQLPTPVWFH

T2: FcgRIIa R (human, UniProt P12318)
T2 chain: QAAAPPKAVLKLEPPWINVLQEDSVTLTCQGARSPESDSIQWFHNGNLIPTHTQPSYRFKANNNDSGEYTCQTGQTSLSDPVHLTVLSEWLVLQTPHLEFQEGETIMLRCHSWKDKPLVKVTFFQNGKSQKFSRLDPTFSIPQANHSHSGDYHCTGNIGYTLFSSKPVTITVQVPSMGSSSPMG

T3: FcgRIIa H (human, UniProt P12318)
T3 chain: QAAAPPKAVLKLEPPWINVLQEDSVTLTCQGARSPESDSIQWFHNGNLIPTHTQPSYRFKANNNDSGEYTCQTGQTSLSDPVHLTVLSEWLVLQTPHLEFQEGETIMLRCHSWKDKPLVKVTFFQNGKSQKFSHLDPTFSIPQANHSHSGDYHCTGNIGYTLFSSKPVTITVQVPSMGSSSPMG

T4: FcgRIIb (human, UniProt P31994)
T4 chain: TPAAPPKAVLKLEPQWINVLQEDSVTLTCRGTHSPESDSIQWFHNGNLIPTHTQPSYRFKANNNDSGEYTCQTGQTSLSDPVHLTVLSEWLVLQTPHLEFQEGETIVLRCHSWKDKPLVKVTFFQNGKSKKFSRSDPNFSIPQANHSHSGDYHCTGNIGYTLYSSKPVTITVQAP


Experiments:
Experiment in all cases: SPR
FcgRIa = target: T1, FcgRIa
FcgRIIIa V = FcgRIIIa V (human, UniProt P08637)
Chain of FcgRIIIa V (P08637 17-208 F176V): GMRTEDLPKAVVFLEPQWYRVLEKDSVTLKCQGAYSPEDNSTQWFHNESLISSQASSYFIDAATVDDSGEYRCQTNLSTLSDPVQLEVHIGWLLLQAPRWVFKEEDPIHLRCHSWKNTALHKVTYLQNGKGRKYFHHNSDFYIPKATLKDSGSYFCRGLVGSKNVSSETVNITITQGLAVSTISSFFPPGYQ

FcgRIIa R = target: T2, FcgRIIa R
FcgRIIa H = target: T3, FcgRIIa H
FcgRIIb = target: T4, FcgRIIb
FcgRIIIa F = FcgRIIIa F (human, UniProt P08637)
Chain of FcgRIIIa F (P08637 17-208): as the sequence (P08637 17-208 F176V) above, with V160F counted along it

Row | Kd (FcgRIa) [nM] | Kd (FcgRIIIa V) [nM] | Kd (FcgRIIa R) [nM] | Kd (FcgRIIa H) [nM] | Kd (FcgRIIb) [nM] | Kd (FcgRIIIa F) [nM] | Binder
1 | 0.11 | 0.84 | 230 | 61 | 1400 | 3 | H240-FA009/H240-FB017/L73-k0 (antibody) chain 1: QDQLVQSGAEVKKPGASVKVSCKASGFNIKDTYIQWVRQAPGQGLEWMGRIDPLRKQTKYREKFEGRVTITADTSTNTAYMELSSLRSEDTAVYYCVRSGREFDYWGQGTLVTVSSASTKGPSVFPLAPSSKSTSGGTAALGCLVKDYFPEPVTVSWNSGALTSGVHTFPAVLQSSGLYSLSSVVTVPSSSLGTKTYICNVNHKPSNTKVDKKVEPKSCDKTHTCPPCPAPEYYWGPSVFLFPPKPKDTLMISRTPEVTCVVVDVSDEEPEVKFNWYVDGVEVHNAKTKPREEQYNATYRVVSVLTVLHQDWLNGKEYKCKVSNKALPAPIEKTISKAKGQPREPQVYTLPPSRKEMTKNQVSLTCLVKGFYPSDIAVEWESNGQPENNYKTTPPVLDSDGSFFLYSKLTVDKSRWQQGNVFSCSVMHEALHNRYTQKSLSLSP chain 2: QDQLVQSGAEVKKPGASVKVSCKASGFNIKDTYIQWVRQAPGQGLEWMGRIDPLRKQTKYREKFEGRVTITADTSTNTAYMELSSLRSEDTAVYYCVRSGREFDYWGQGTLVTVSSASTKGPSVFPLAPSSKSTSEGTAALGCLVKDYFPEPVTVSWNSGALTSGVHTFPAVLQSSGLYSLSSVVTVPSSSLGTQTYICNVDHKPSNTKVDKKVEPKSCDKTHTCPPCPAPELLGGPSVFLFPPKPKDTLMISRTPEVTCVVVDVSHEEPEVQFNWYVDGVEVHNAKTKPREEQYNSTYRVVSVLTVLHQDWLNGKEYKCKVSNDALPMPIEETISKAKGQPREPQVYTLPPSREEMTKNQVSLTCLVKGFYPSDIAVEWESNGQPENNYKTTPPVLDSDGSFFLYSKLTVDKSRWQQGNVFSCSVMHEALHNHYTQESLSLSP chain 3: DIQMTQSPSSLSASVGDRVTITCRASQDIHKYIAWYQQKPGQAPRLLIQYTSTLQPGVPSRFSGSGSGTDYTFTISSLQPEDIATYYCLQYEQLRTFGGGTKVEIKRTVAAPSVFIFPPSDEQLKSGTASVVCLLNNFYPREAKVQWKVDNALQSGNSQESVTEQDSKDSTYSLSSTLTLSKADYEKHKVYACEVTHQGLSSPVTKSFNRGEC
2 | 0.081 | 1.2 | 280 | 82 | 1500 | 3.9 | H240-FA030/H240-FB083/L73-k0 (antibody) chain 1: QDQLVQSGAEVKKPGASVKVSCKASGFNIKDTYIQWVRQAPGQGLEWMGRIDPLRKQTKYREKFEGRVTITADTSTNTAYMELSSLRSEDTAVYYCVRSGREFDYWGQGTLVTVSSASTKGPSVFPLAPSSKSTSGGTAALGCLVKDYFPEPVTVSWNSGALTSGVHTFPAVLQSSGLYSLSSVVTVPSSSLGTKTYTCNVNHKPSNTKVDKKVEPKSCDKTHTCPPCPAPEYYWGPSVFLFPPKPKDTLMISRTPEVTCVVVDVSDEEPKVKFNWYVDGVEVHNAKTKPREEQYNATYRVVSVLTVLHQDWLNGKEYKCKVSNKALPAPIEKTISKAKGQPREPQVYTLPPSRKEMTKNQVSLTCLVKGFYPSDIAVEWESNGQPENNYKTTPPVLDSDGSFFLYSKLTVDKSRWQQGNVFSCSVMHEALHNRYTQKSLSLSP chain 2: QDQLVQSGAEVKKPGASVKVSCKASGFNIKDTYIQWVRQAPGQGLEWMGRIDPLRKQTKYREKFEGRVTITADTSTNTAYMELSSLRSEDTAVYYCVRSGREFDYWGQGTLVTVSSASTKGPSVFPLAPSSKSTSESTAALGCLVEDYFPEPVTVSWNSGALTSGVHTFPAVLQSSGLYSLSSVVTVPSSNFGTQTYTCNVDHKPSNTKVDKTVEPKSCDKTHTCPPCPAPELLGGPSVFLFPPKPKDTLMISRTPEVTCVVVDVSHEEPEVQFNWYVDGVEVHNAETKPREEQYNSTYRVVSVLTVLHQDWLNGKEYKCKVSNDALPMPIEETISKAKGQPREPQVYTLPPSREEMTKNQVSLTCLVKGFYPSDIAVEWESNGQPENNYKTTPPVLDSDGSFFLYSKLTVDKSRWQQGNVFSCSVMHEALHNHYTQESLSLSP chain 3: DIQMTQSPSSLSASVGDRVTITCRASQDIHKYIAWYQQKPGQAPRLLIQYTSTLQPGVPSRFSGSGSGTDYTFTISSLQPEDIATYYCLQYEQLRTFGGGTKVEIKRTVAAPSVFIFPPSDEQLKSGTASVVCLLNNFYPREAKVQWKVDNALQSGNSQESVTEQDSKDSTYSLSSTLTLSKADYEKHKVYACEVTHQGLSSPVTKSFNRGEC
3 | 0.079 | 1.1 | 270 | 69 | 1200 | 3.4 | H240-FA020/H240-FB082/L73-k0 (antibody) chain 1: QDQLVQSGAEVKKPGASVKVSCKASGFNIKDTYIQWVRQAPGQGLEWMGRIDPLRKQTKYREKFEGRVTITADTSTNTAYMELSSLRSEDTAVYYCVRSGREFDYWGQGTLVTVSSASTKGPSVFPLAPSSKSTSGGTAALGCLVKDYFPEPVTVSWNSGALTSGVHTFPAVLQSSGLYSLSSVVTVPSSSLGTKTYTCNVNHKPSNTKVDKKVEPKSCDKTHTCPPCPAPEYYWGPSVFLFPPKPKDTLMISRTPEVTCVVVDVSDEEPEVKFNWYVDGVEVHNAKTKPREEQYNATYRVVSVLTVLHQDWLNGKEYKCKVSNKALPAPIEKTISKAKGQPREPQVYTLPPSRKEKTKNQVSLTCLVKGFYPSDIAVEWESNGQPENNYKTTPPVLDSDGSFFLYSKLTVDKSRWQQGNVFSCSVMHEALHNRYTQKSLSLSP chain 2: QDQLVQSGAEVKKPGASVKVSCKASGFNIKDTYIQWVRQAPGQGLEWMGRIDPLRKQTKYREKFEGRVTITADTSTNTAYMELSSLRSEDTAVYYCVRSGREFDYWGQGTLVTVSSASTKGPSVFPLAPSSKSTSGETAALGCLVEDYFPEPVTVSWNSGALTSGVHTFPAVLQSSGLYSLSSVVTVPSSSLGTQTYICNVNHKPSNTKVDKKVEPKSCDKTHTCPPCPAPELLGGPSVFLFPPKPKDTLMISRTPEVTCVVVDVSHEEPEVQFNWYVDGVEVHNAETKPREEQYNSTYRVVSVLTVLHQDWLNGKEYKCKVSNDALPMPIEETISKAKGQPREPQVYTLPPSREEMTKNQVSLTCLVKGFYPSDIAVEWESEGQPENNYKTTPPVLDSDGSFFLYSKLTVDKSRWQQGNVFSCSVMHEALHNHYTQESLSLSP chain 3: DIQMTQSPSSLSASVGDRVTITCRASQDIHKYIAWYQQKPGQAPRLLIQYTSTLQPGVPSRFSGSGSGTDYTFTISSLQPEDIATYYCLQYEQLRTFGGGTKVEIKRTVAAPSVFIFPPSDEQLKSGTASVVCLLNNFYPREAKVQWKVDNALQSGNSQESVTEQDSKDSTYSLSSTLTLSKADYEKHKVYACEVTHQGLSSPVTKSFNRGEC
